Laboratory results as given in article PMC8427768.

Biological target: T1, Elk1 ETS domain (human, UniProt P19419 1-93)
T1 sequence: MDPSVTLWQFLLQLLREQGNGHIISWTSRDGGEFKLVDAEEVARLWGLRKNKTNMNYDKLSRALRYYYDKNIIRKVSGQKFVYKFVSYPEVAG
Assay: SPR

B1: SC1 (dsDNA)
DNA 1: CGGCCAAGCCGGAAGTGAGTGCC
DNA 2: GGCACTCACTTCCGGCTTGGCCG
Which Kd does the source give for B1 here?
Its Kd is 0.06 ± 0.01 nM.

B2: E74 (dsDNA)
DNA 1: CTGAATAACCGGAAGTAACTCATC
DNA 2: GATGAGTTACTTCCGGTTATTCAG
B2 was tested. Which Kd did it give?
The Kd was 0.02 ± 0.01 nM.
